Experimental data published in patent US20250243281A1 (IMMUNITAS THERAPEUTICS, published 2025).
Numbering of substitutions follows the chain as printed.

What was measured:
human HSP70 = molecular target: T1, human HSP70 (human, UniProt P0DMV8 1-641); assay: polyspecificity ELISA, coated HSP70, 100 nM antibody
T1 construct: polyspecificity reagent

hCLEC12B [1] = molecular target: T2, hCLEC12B (human, UniProt Q2HXU8 1-276); assay: flow cytometry; 100 nM antibody on HEK293 cells expressing CLEC12B; Alexa Fluor 647 anti-human IgG; MFI
T2 construct: Overexpressed on HEK293 cells
T2 sequence: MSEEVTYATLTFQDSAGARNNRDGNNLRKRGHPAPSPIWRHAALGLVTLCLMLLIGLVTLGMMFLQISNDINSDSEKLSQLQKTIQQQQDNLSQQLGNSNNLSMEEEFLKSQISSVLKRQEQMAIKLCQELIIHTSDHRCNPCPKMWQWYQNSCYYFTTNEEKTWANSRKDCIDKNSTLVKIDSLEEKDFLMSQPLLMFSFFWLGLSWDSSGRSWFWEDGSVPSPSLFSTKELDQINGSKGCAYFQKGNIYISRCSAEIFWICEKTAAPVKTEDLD
Experimental: (§1) For the antibody binding assay, all cell lines were washed in phosphate-buffered saline with 0.1% bovine serum albumin (PBSA) and seeded in a 96 well plate at a density of 4×10⁴ cells per well. Washed cells were resuspended in 100 nM of antibody (a saturating concentration to measure maximum binding on cells) and incubated at room temperature for 30 minutes. […] Cells were analyzed by flow cytometry with a Thermo Fisher Attune flow cytometer.
(§2) Data were analyzed using FlowJo software. MFI for each sample was calculated and exported into Graphpad Prism.

hKLRF2 [2] = molecular target: T3, hKLRF2 (human, UniProt D3W0D1 1-207); assay: flow cytometry; 100 nM antibody on HEK293 cells expressing KLRF2; Alexa Fluor 647 anti-human IgG; MFI
T3 construct: Overexpressed on HEK293 cells
T3 sequence: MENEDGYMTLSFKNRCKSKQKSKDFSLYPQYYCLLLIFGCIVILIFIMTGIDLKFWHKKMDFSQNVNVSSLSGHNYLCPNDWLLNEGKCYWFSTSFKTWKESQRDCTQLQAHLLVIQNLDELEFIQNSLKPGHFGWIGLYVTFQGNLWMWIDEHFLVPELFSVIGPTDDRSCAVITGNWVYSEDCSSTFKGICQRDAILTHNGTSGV
Experimental: as §1, §2

hKLRF1 [3] = molecular target: T4, hKLRF1 (human, UniProt Q9NZS2 1-231); assay: flow cytometry; 100 nM antibody on HEK293 cells expressing KLRF1; Alexa Fluor 647 anti-human IgG; MFI
T4 construct: Overexpressed on HEK293 cells
T4 sequence: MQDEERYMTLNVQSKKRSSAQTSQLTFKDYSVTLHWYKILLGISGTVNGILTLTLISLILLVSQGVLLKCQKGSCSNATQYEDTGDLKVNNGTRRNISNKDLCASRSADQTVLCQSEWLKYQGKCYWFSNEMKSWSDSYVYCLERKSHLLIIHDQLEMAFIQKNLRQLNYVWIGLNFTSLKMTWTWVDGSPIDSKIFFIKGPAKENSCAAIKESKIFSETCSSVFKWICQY
Experimental: as §1, §2

hCLEC2D [4] = molecular target: T5, hCLEC2D (human, UniProt Q9UHP7 1-191); assay: flow cytometry, HEK293 transfectants, 100 nM antibody;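 also: antibody applied at a saturating level and incubated with cells for 30 min at room temperature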
T5 construct: Overexpressed on HEK293 or K562 cells; the same id is used for endogenous CLEC2D on NALM6 and Raji cells; also called LLT1
T5 sequence: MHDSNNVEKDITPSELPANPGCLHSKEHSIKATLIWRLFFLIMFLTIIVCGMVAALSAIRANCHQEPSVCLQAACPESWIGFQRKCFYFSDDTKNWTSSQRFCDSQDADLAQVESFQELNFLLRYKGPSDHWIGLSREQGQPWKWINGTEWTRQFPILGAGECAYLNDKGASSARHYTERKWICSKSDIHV
Experimental: as §1, §2

hKLRF2 [5] = molecular target: T3, hKLRF2; assay: as above
Experimental: as §1, §2

hCLEC12B [6] = molecular target: T2, hCLEC12B; assay: as above
Experimental: as §1, §2

hKLRF1 [7] = molecular target: T4, hKLRF1; assay: as above
Experimental: as §1, §2

hCLEC2D [8] = molecular target: T5, hCLEC2D; assay: flow cytometry; 100 nM antibody on HEK293 cells expressing CLEC2D; Alexa Fluor 647 anti-human IgG; MFI
Experimental: as §1, §2

T1 sequence (P0DMV8 whole entry): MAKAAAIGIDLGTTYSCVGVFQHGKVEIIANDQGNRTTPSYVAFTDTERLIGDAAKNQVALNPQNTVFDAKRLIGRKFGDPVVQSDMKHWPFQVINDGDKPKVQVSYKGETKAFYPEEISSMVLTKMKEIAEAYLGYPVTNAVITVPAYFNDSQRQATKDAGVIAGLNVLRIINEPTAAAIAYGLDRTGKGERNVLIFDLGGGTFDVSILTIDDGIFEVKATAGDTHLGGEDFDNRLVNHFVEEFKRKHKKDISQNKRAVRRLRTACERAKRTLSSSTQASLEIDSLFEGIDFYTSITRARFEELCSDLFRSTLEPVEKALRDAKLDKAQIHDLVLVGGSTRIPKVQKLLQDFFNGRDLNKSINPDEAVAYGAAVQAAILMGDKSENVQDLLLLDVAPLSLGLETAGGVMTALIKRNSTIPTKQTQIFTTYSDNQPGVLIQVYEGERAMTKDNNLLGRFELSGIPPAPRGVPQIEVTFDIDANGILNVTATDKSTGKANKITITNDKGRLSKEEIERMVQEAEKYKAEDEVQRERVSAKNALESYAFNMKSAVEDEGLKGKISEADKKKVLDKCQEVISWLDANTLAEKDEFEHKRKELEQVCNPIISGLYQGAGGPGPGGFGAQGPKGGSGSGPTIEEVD

B1: Ustekinumab (antibody, V domains shown)
VH: EVQLVQSGAEVKKPGESLKISCKGSGYSFTTYWLGWVRQMPGKGLDWIGIMSPVDSDIRYSPSFQGQVTMSVDKSITTAYLQWNSLKASDTAMYYCARRRPGQGYFDFWGQGTLVTVSS
VL: DIQMTQSPSSLSASVGDRVTITCRASQGISSWLAWYQQKPEKAPKSLIYAASSLQSGVPSRFSGSGSGTDFTLTISSLQPEDFATYYCQQYNIYPYTFGQGTKLEIK
Human HSP70
  Norm (signal over AdalimumAb): 3.71 fold

B2: Ab8 (antibody, human IgG1, V domains shown)
VH: EVQLLESGGGLVQPGGSLRLSCAASGFTFGTFAMSWVRQAPGKGLEWVSAISGVGGTTYYADSVKGRFTISRDNSKNTLYLQMNSLRAEDTAVYYCAKPLDSSFWADFDLWGRGTLVTVSS
VL: DIQLTQSPSSVSASVGDRVTITCRASQTISSWLAWYQQKPGKAPKLLIYAASSLQSGVPSRFSGSGSGTDFTLTISSLQPEDFATYYCQQQSVLPITFGGGTKVEIK
notes: IgG purified from yeast culture
hCLEC12B [1]
  binding result: no binding (tested: 100 nM)
hKLRF2 [2]
  binding result: no binding (tested: 100 nM)
hKLRF1 [3]
  binding result: no binding (tested: 100 nM)
hCLEC2D [4]
  % of CD161 binding: 0.846%
hKLRF2 [5]
  % of CD161 binding: 0.038%
hCLEC12B [6]
  % of CD161 binding: 0.049%
hKLRF1 [7]
  % of CD161 binding: 0.031%
hCLEC2D [8]
  binding result: no binding (tested: 100 nM)

B3: Ab9 (antibody, human IgG1, V domains shown)
VH: B2 VH with G30S, T31P, F32Y, G53A, V54S
VL: B2 VL with T28G, Q91H
hCLEC12B [1]
  binding result: no binding (tested: 100 nM)
hKLRF2 [2]
  binding result: no binding (tested: 100 nM)
hKLRF1 [3]
  binding result: no binding (tested: 100 nM)
hCLEC2D [4]
  % of CD161 binding: 0.808%
hKLRF2 [5]
  % of CD161 binding: 0.028%
hCLEC12B [6]
  % of CD161 binding: 0.025%
hKLRF1 [7]
  % of CD161 binding: 0.042%
hCLEC2D [8]
  binding result: no binding (tested: 100 nM)
